Results reported in US20170360911A1 (SAPPORO MEDICAL UNIVERSITY, published 2017).

Legend:
HLA-A*02:01 = target: T1, HLA-A*02:01 (human); experiment: T2-A24 MHC class I stabilization, flow cytometry, anti-HLA-A02 BB7.2-FITC, peptide 100 ug/mL
T1 construct: whole, on cells; Empty class I molecule on TAP-deficient T2-A24 cells; detected with anti-HLA-A02 antibody BB7.2

HLA-A*24:02 = target: T2, HLA-A*24:02 (human); experiment: T2-A24 MHC class I stabilization, flow cytometry, anti-HLA-A24 17A10-FITC, peptide 100 ug/mL;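 also: peptide exposure stabilizes otherwise empty class I molecules on T2 cell surfaces, so surface class I level reflects how strongly the peptide binds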
T2 construct: whole, on cells; Empty class I molecule on T2-A24 cells
Method: T2 cells can usually only express a low level of empty MHC class I molecules on the cell surface. However, when a peptide that can bind to the MHC class I molecule is added, the empty MHC class I molecule binds to the peptide and can be present on the cell surface in a stable manner. Therefore, the cell surface MHC class I expression level depends on the MHC class I binding affinity of a peptide.
The T2-A24 cells were subcultured at 37° C. under 5% CO₂. […] These peptides were dissolved in DMSO and further diluted by 200 times with RPMI 160 medium. A cell suspension and the peptide solution were mixed and cultured under conditions of 5% CO₂ and 26° C. for 16 to 18 hours. Co-culturing was carried out at a temperature of 37° C. for a further 3 hours, the supernatant was then removed by centrifuging, and cells were isolated. […] Subsequently, the cells were washed with 3% FBS-containing PBS, 4% paraformaldehyde phosphate buffer was added, and the mixture was allowed to stand at room temperature for 10 minutes to thus fix the cells. The fixed cells were subjected to measurement of FITC fluorescence intensity by a flow cytometer (FACScan). The mean fluorescence intensity (MFI) was calculated as a solvent ratio.

Binder	MFI (solvent ratio) (HLA-A*02:01)	MFI (solvent ratio) (HLA-A*24:02)
MLEAGAEANL (read as 39 from its place between 38 and 40) [As271_10]	1 ratio to solvent	1.2 ratio to solvent
AFYVEHGAIF [As192_10]	1.1 ratio to solvent	2.2 ratio to solvent
HFGLSELVAFYV [As184_12]	3.1 ratio to solvent	3.2 ratio to solvent
GYWLPSYKL [As63_9]	1.1 ratio to solvent	1.2 ratio to solvent
LVLLDHNATI [As92_10]	2.6 ratio to solvent	1.1 ratio to solvent
HVLMHMMLEA [As265_10]	2 ratio to solvent	
ATGLHLSVLF [As76_10]	0.9 ratio to solvent	2.1 ratio to solvent
LLNHGAARI [As311_9]	0.9 ratio to solvent	0.9 ratio to solvent
GLSELVAFYV [As186_10]	2.6 ratio to solvent	1.1 ratio to solvent
LLLNHGAARI [As310_10]		1.2 ratio to solvent
QIDVDTVFEV (41-50 follows from start and length) [As41_10]	1.2 ratio to solvent	1.1 ratio to solvent
HVECLLVLL [As87_9]	1.5 ratio to solvent	1.6 ratio to solvent
SLPLSLKKYL [As408_10]	1 ratio to solvent	1 ratio to solvent
YLLLEPEGII [As416_10]	2.8 ratio to solvent	
IQYVLKVTSV [As289_10]	1.2 ratio to solvent	1.5 ratio to solvent
SVLFGHVECL [As82_10]	3.3 ratio to solvent	2.7 ratio to solvent
ILCDRGAKL [As125_9]	1.9 ratio to solvent	1.8 ratio to solvent
TLMHLSRCAI [As383_10_5L]	2.4 ratio to solvent	1 ratio to solvent
RMLLDYKAEV [As236_10]	3.3 ratio to solvent	1 ratio to solvent
KYWDFYHSL [As365_9]	1.1 ratio to solvent	2.5 ratio to solvent
CYQLLLNHGA [As307_10]	2.5 ratio to solvent	1.9 ratio to solvent
PLLSLPLSL [As405_9]	2.2 ratio to solvent	2.8 ratio to solvent

Binder	MFI (solvent ratio) (HLA-A*02:01)	MFI (solvent ratio) (HLA-A*24:02)
SILCAKQLV [As152_9]	1.8 ratio to solvent	
FEVEDENMVL [As48_10]	1 ratio to solvent	
KQLVWRGANV [As157_10]	1.2 ratio to solvent	1 ratio to solvent
IYPPQFHKV (also called ASB4 peptide) [IV9]	0.9 ratio to solvent	3.3 ratio to solvent
HLSVLFGHV [As80_9]	1.6 ratio to solvent	2.1 ratio to solvent
PLAIAAYWAL [As211_10]	1.1 ratio to solvent	2.1 ratio to solvent
QYVLKVTSV [As290_9]	1 ratio to solvent	
HFCTTPSSIL [As145_10]	1 ratio to solvent	1.2 ratio to solvent
DFGKLKAIL [As29_9]	1 ratio to solvent	1 ratio to solvent
VVVNAYEHI [As340_9]	0.9 ratio to solvent	1 ratio to solvent
KILCDRGAKL [As124_10]	1.6 ratio to solvent	2.2 ratio to solvent
VLFGHVECLL [As83_10]	3.6 ratio to solvent	2.8 ratio to solvent
AILIQRQIDV [As35_10]	3.4 ratio to solvent	1.1 ratio to solvent
KLVKRNFLEAL [As15_11]	1 ratio to solvent	1 ratio to solvent
CYSLSGHTAL [As135_10]	1.6 ratio to solvent	2.4 ratio to solvent
LMDINGCAAI [As280_10]	3.1 ratio to solvent	1.2 ratio to solvent
AAQPEICYQLL [As301_11]	2.6 ratio to solvent	2 ratio to solvent
AIPLLSLPL [As403_9]	0.9 ratio to solvent	1.1 ratio to solvent
RIYPPQFHKV [As318_10]		3.6 ratio to solvent
DFYHSLFTV [As368_9]	1 ratio to solvent	1.1 ratio to solvent
KLKSSWATGL [As70_10]	1.1 ratio to solvent	1 ratio to solvent
KYWDFYHSLFTV [As365_12]	1 ratio to solvent	2.4 ratio to solvent
